In PMC4359947 (The international journal of biochemistry & cell biology, 2015):
Ends that are not written are not given here.

Biological target: MAGI-1 PDZ1 domain, Cy3-labelled, tag-free (Cy3 label (approximately 1 dye/peptide))
Assay: FRET or BRET

B1: CAR (CAR^Ex7) C-terminus, Cy5-labelled, tag-free (peptide)
peptide: GAIPVMIPAQSKDGSIV
modifications: also: Cy5 label (approximately 1 dye/peptide), site not given here
In the case of B1, the Kd is reported as greater than 500 nM.
